Data as given in the supplement of paper PMC12764529.
± gives the half width of the 95% confidence interval.

Assays:
[1] = folding stability dG unfold from trypsin proteolysis; higher = more stable
In short: (§1)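 Mini-proteins designed to be under 80 residues and free of cysteine were carried in a PA-tagged cDNA display construct and digested with trypsin and with chymotrypsin. Each protease was applied at 11 threefold-diluted concentrations, alongside a no-protease condition, before sequencing. K50 came from Bayesian fitting of the sequencing counts, and unfolding free energy was obtained by comparing it with a sequence-predicted unfolded-state K50 and a shared folded-state K50, for each protease separately or for both together. Designs were retained only if their AlphaFold2 dimer inter-PAE exceeded 15.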

[2] = folding stability dG unfold from chymotrypsin proteolysis; higher = more stable
In short: as §1

[3] = folding stability dG unfold (combined trypsin and chymotrypsin); higher = more stable
In short: as §1

Sequence | folding stability dG unfold [1] [kcal/mol] | folding stability dG unfold [2] [kcal/mol] | folding stability dG unfold [3] [kcal/mol]
SAGGSIETIAERARDLARELNPDDGKEYPITIEIRDPENNRPIRIKISVRYDPDGKIKKVKFTKFEPYSAGG [r13_770_TrROS] | 1.03 ± 0.06 | 1.04 ± 0.11 | 1.06 ± 0.077
SAGGSIKVFESESTDPATGKVTTTTTTVTESSEEPTPEAAKNTPPGETTTTTTTTTTTSPVPPGTAASAGGS [r8_274_JUSTAS] | 0.476 ± 0.057 | 0.67 ± 0.022 | 0.54 ± 0.14
SAGGSIRIYANNVEITDIEIGDDGYIEIKVRMRGPNGQPQEFTLMIRVVPPPPPPKVDPNDPDAKDSAGGSA [r2_368_TrROS] | 2.51 ± 0.1 | 3.5 ± 0.29 | 3.08 ± 0.31
SAGGSITSTTTLPDGTTVTTTVLPSGVTVVTTSTLDPATGTVSTTTTTLPPSSATTTTTTTTVPPLTSAGGS [r16_230_JUSTAS] | 3.18 ± 0.12 | 2.16 ± 0.029 | 2.58 ± 0.046
SAGGSIWIPIDSPEDVEEAIDFIQDFLAERGMPPGHDIKKIKVERMENGHYWVEIEFPGRKIYIWVSAGGSA [r2_120_TrROS] | 2.62 ± 0.049 | 4.02 ± 0.054 | 3.65 ± 0.084
SAGGSKIHIPIDPESGNFRIKVYPPDEPKEVSIQFKDPDDPEEFMDRAIEEANEYANNGYRVEIEPSAGGSA [r2_118_TrROS] | -0.52 ± 0.3 | -0.278 ± 0.58 | -0.668 ± 0.48
SAGGSKIKIVEVKKNEDGTVTVKVEVEINGKKYTIEARFETLEDGKKVMTLRITNENGEEIEIVLPSAGGSA [r2_376_TrROS_Hall] | 3.45 ± 0.38 | 5.22 ± 0.17 | 5.12 ± 0.32
SAGGSKIPLDNIKVITIMYNPKEGMYWISIRFPNNGKEVVFPYEDAPKILEKFPEIKEIEVYPFPPSAGGSA [r2_159_TrROS] | 2.25 ± 0.11 | 2.76 ± 0.036 | 2.59 ± 0.084
SAGGSKKTLTITVKNKETGETVKIKVELTPDGKKIKITIVAKKEEEAKEAAKKLLEELGYKVEIVPSAGGSA [r2_30_TrROS_Hall] | 3.15 ± 0.36 | 1.61 ± 0.066 | 2.09 ± 0.2
SAGGSKKVILIAKIPNEDKYLVLIASDSPELVKEAAKKAKKPGFYVLGEMTVEEAVKKLGLPPELFKSAGGS [r16_438_TrMRF] | 1.04 ± 0.03 | 2.5 ± 0.051 | 2.23 ± 0.19
SAGGSKLPPGQKVIEIEWKIPPGLKPGQPFKISDEFINKLAERHGNIHITNIQFTNSYMKWSIIIDSAGGSA [r2_383_TrROS] | 1.83 ± 0.063 | 2.2 ± 0.051 | 2.11 ± 0.067
SAGGSKMEIVKYDKEKNVIYVRVDGKTYTFPLDEITEVTFDEETGELTIKVNGKTYTIKLDLPDLVSAGGSA [r2_48_TrROS_Hall] | 3.22 ± 0.16 | 4.29 ± 0.12 | 4.11 ± 0.29
SAGGSKMPPGYKMIPIEIPFRTPEDLEQAINFAEELAREGFTIIDIDVEIPEGDNYRVEFHIMLPYSAGGSA [r2_350_TrROS] | 1.85 ± 0.056 | 2.6 ± 0.048 | 2.31 ± 0.1
SAGGSKPILKIKITIYRIDKNGKLIKKIELTLPPLTEEQLKKLLEALKKLPKDVKIVEVKIELVEPSAGGSA [r2_75_TrROS_Hall] | 3.49 ± 0.32 | 4.54 ± 0.26 | 4.16 ± 0.31
SAGGSKPLKKIVIPLTPEELKKLKGKKVKITIKVDGKEYEIEFIDGYAVITVPAGEKVEITKIEIESAGGSA [r2_246_TrROS_Hall] | 2.47 ± 0.15 | 2.36 ± 0.12 | 2.41 ± 0.22
SAGGSKPVKVTVRRDPKNPDKWTVTVTAGDKTTTLTFDPNDEAAVRAALEAALPADEVLEELEFEDLLSAGG [r13_519_JUSTAS] | 2.8 ± 0.12 | 2.99 ± 0.043 | 2.88 ± 0.17
SAGGSKTITIELTTKDGYKFTITVTEKDDKVTANITFLDPTVTPEKIDETIATLEKLAKEAGKNLTISSAGG [r13_774_TrMRF] | 2.62 ± 0.11 | 3.66 ± 0.088 | 3.36 ± 0.095
SAGGSKVRIEVEELPDGTVKVTAEVEVDGVLYKIEAEFRINEDGEIVEMKVKIEARPLPPPPPPEESAGGSA [r2_474_TrROS_Hall] | 3.5 ± 0.27 | 4.17 ± 0.17 | 3.92 ± 0.21
